Data set [1] can be described thus: Single dose pharmacokinetics of EXT607 in male cynomolgus monkeys. Format: in vivo. The note with it: cynomolgus monkey. As to the method:
In a single dose pharmacokinetic study, EXT607 was formulated in PBS and groups of male cynomolgus monkeys (n=3), weighing approximately 4 kg each, were dosed at a volume of 1 ml/kg as follows: Group 1, 20 μg/kg intravenous; Group 2, 7 μg/kg subcutaneous; Group 3, 20 μg/kg subcutaneous; Group 4, 70 μg/kg subcutaneous. Blood (1.0 mL) was collected via the jugular vein cannula, transferred into tubes containing K2EDTA, and kept on wet ice until processed for plasma. Blood samples were collected at 0 (pre-dose), 0.083 (IV only), 0.25, 0.5, 1, 2, 4, 6, 8, 12, 24, 36, 48, 60 and 72 h post-dose.
Pharmacokinetic parameters were determined from the plasma concentration versus time data (Table 5) by a non-compartmental analysis with uniform weighting using Phoenix® WinNonlin® Version 6.3 (Certara L.P. (Pharsight), St. Louis, MO). The concentration versus time data were analyzed using the IV bolus or extravascular administration models. Best fit Lambda z ranges were used.
At low doses, the rate of subcutaneous absorption is slower than at high doses, leading to a lower Cmax and an overall flatter PK profile.

Data set [2] is described as follows: Single dose pharmacokinetics of EXT607 in male rats. Conditions: in vivo, rat. The protocol: In a single dose pharmacokinetic study, EXT607 was formulated in PBS and groups of male rats (n=3) were dosed at a volume of 1 ml/kg as follows: Group 1, 100 μg/kg intravenous; Group 2, 30 μg/kg subcutaneous; Group 3, 100 μg/kg subcutaneous; Group 4, 300 μg/kg subcutaneous. Blood (0.25 mL) was collected via the jugular vein cannula, transferred into tubes containing K2EDTA, and kept on wet ice until processed for plasma. Blood samples were collected at 0 (predose), 0.083 (IV only), 0.25, 0.5, 1, 2, 4, 6, 8, 12, 24, 36, 48, 60 and 72 h postdose.
Pharmacokinetic parameters were determined from the plasma concentration versus time data (Table 4) by a non-compartmental analysis with uniform weighting using Phoenix® WinNonlin® Version 6.3 (Certara L.P. (Pharsight), St. Louis, MO). The concentration versus time data were analyzed using the IV bolus or extravascular administration models. Best fit Lambda z ranges were used.

In data set [3] the test system is Thyroparathyroidectomized (TPTx) rats. Description: 28-day pharmacodynamic study in thyroparathyroidectomized (TPTx) rats. The format is in vivo, rat. The note with it: for % Increase in Serum Calcium, Cumulative: Days 1, 12, 27, relative to TPTx/vehicle; for increase in serum calcium compared to TPTx controls (in words): daily SC dosing (EXT607 1, 3, 10 nmol/kg; PTH peptides 10 nmol/kg); for decrease in serum phosphate (in words): daily SC dosing (EXT607 all dose levels; PTH peptides 10 nmol/kg), from Day 12. The text has this: 28-day Pharmacodynamic Study of EXT607 in TPTx Rats. Thyroparathyroidectomized (TPTx) rats are a model for hypoparathyroidism. To produce TPTx rats, the thyroid and parathyroid glands were surgically resected and the rats were given L-thyroxine to compensate for the loss of their thyroid. Due to the absence of PTH, TPTx rats had lower levels of serum calcium and higher levels of serum phosphate.
Each group consisted of 10 female rats split into two cohorts of 5 animals for blood sampling purposes. On days 1, 12, and 27, blood (˜0.2 ml) was collected into serum separation tubes at t=0 (pre-dose), 2, 6, 10, and 24 h. The samples were processed into serum by standard methods and analyzed for serum total calcium and phosphate.
Calcium levels at 3 and 10 nmol/kg (20 and 60 μg/kg) were at or just below the normal range of calcium levels for healthy animals. […] For each timepoint, the percent increase in serum calcium relative to the TPTx vehicle control group (Group 2) was determined and daily averages were calculated (Table 9B). Over the three days sampled (Days 1, 12, and 27), […] increased serum calcium an average of 17, 28, and 37% at 1, 3, and 10 nmol/kg, respectively.
At each timepoint, the percent decrease in serum phosphate relative to the TPTx vehicle control group (Group 2) was determined, and daily averages were calculated (Table 9C).

[4] abbreviates: 7 μg/kg SC relative to 70 μg/kg SC.
Setting [5] is: 20 μg/kg SC relative to 70 μg/kg SC.
Where [6] appears, read: in vivo, 7 ug/kg, single 7 μg/kg SC.
The mark [7] stands for this setting: in vivo, 20 ug/kg, single 20 μg/kg IV.
Where [8] appears, read: in vivo, 20 ug/kg, single 20 μg/kg SC.
The mark [9] stands for this setting: in vivo, 70 ug/kg, single 70 μg/kg SC.
[10] abbreviates: 10 nmol/kg SC daily, Day 1, relative to TPTx/vehicle.
Setting [11] is: 10 nmol/kg SC daily, Day 12, relative to TPTx/vehicle.
Setting [12] is: 10 nmol/kg SC daily, Day 27, relative to TPTx/vehicle.

Where “and” joins values, the source holds several entries; their conditions need not be identical. Equal entries are not always repeated.

Usually AUC(0-inf) stands for the area under the concentration-time curve extrapolated to infinity. In general, MRT refers to the average time that molecules of a dose stay in the body. A word on the AUC(0-t): it is exposure summed from dosing to a finite time, without extrapolation to infinity. A word on the bioavailability: it is the share of a dose that reaches the circulation, judged against a reference dose that is usually intravenous.

For `C=C1CC[C@H](OCCCNC(=O)CCOCCOCCOCCOCCOCCOCCOCCOCCOCCOCCOCCOCCOCCOCCOCCOCCOCCOCCOCCOCCOCCOCCOCCOCCOCCOCCOCCOCCOCCOCCOCCOCCOCCOCCOCCOCCNC(=O)CCN2C(=O)CC(SC[C@H](NC(=O)[C@H](Cc3ccccc3)NC(=O)[C@H](CC(N)=O)NC(=O)[C@H](Cc3c[nH]cn3)NC(=O)[C@@H](NC(=O)[C@H](CC(=O)O)NC(=O)[C@H](CCC(N)=O)NC(=O)[C@H](CC(C)C)NC(=O)[C@H](CCCCN)NC(=O)[C@H](CCCCN)NC(=O)[C@H](CCCNC(=N)N)NC(=O)[C@H](CC(C)C)NC(=O)[C@H](Cc3c[nH]c4ccccc34)NC(=O)[C@H](CCC(=O)O)NC(=O)[C@@H](NC(=O)[C@H](CCCNC(=N)N)NC(=O)[C@H](CCC(=O)O)NC(=O)[C@H](CCSC)NC(=O)[C@H](CO)NC(=O)[C@H](CC(N)=O)NC(=O)[C@H](CC(C)C)NC(=O)[C@H](Cc3c[nH]cn3)NC(=O)[C@H](CCCCN)NC(=O)CNC(=O)[C@H](CC(C)C)NC(=O)[C@H](CC(N)=O)NC(=O)[C@H](Cc3c[nH]cn3)NC(=O)[C@H](CCSC)NC(=O)[C@H](CC(C)C)NC(=O)[C@H](CCC(N)=O)NC(=O)[C@@H](NC(=O)[C@H](CCC(=O)O)NC(=O)[C@H](CO)NC(=O)[C@@H](NC(=O)[C@@H](N)CO)C(C)C)[C@@H](C)CC)C(C)C)C(C)C)C(=O)O)C2=O)C/C1=C/C=C1\CCC[C@]2(C)[C@@H]([C@H](C)CCCC(C)(C)O)CC[C@@H]12` (some centres unmarked) [EXT607], the “dose-adjusted AUC ratio” value in data set [1] (setting [4]) is given as 0.95; in data set [1] (setting [5]) it was 0.85; in data set [1] (70 μg/kg SC (reference)), 1.00. For the same molecule, the “dose-adjusted Cmax ratio” value in data set [1] (setting [4]) is given as 0.28; in data set [1] (setting [5]), 0.55; in data set [1] (70 μg/kg SC (reference)), 1.00. For the same molecule, the half-life in data set [1] (in vivo, sc, NHP, after subcutaneous dosing, read-out: terminal half-life) is 1440 to 1920 min; in data set [1] (in vivo, 7 ug/kg, single 7 μg/kg SC, read-out: t1/2 (converted)) it was 1440 min; in data set [1] (in vivo, 20 ug/kg, single 20 μg/kg IV, read-out: t1/2 (converted)), 1940 min; in data set [1] (in vivo, 20 ug/kg, single 20 μg/kg SC, read-out: t1/2 (converted)), 1460 min; in data set [1] (in vivo, 70 ug/kg, single 70 μg/kg SC, read-out: t1/2 (converted)), 1660 min; in data set [1] (in vivo, across doses, read-out: t1/2 of elimination), 1440 to 1920 min. The half-life lay within 420 to 900 min in data set [2] (300 ug/kg, SC 30, 100 or 300 μg/kg, read-out: half-life) and 480 to 900 min in data set [2] (sc, rats, after subcutaneous dosing, read-out: terminal half-life). Moreover, the AUC(0-inf) amounted to 483 ng·h/mL in data set [1] (setting [6]); 2850 ng·h/mL in data set [1] (setting [7]); 1290 ng·h/mL in data set [1] (setting [8]); 5300 ng·h/mL in data set [1] (setting [9]); 186 ng·h/mL in data set [2] (30 ug/kg, single 30 μg/kg SC); 4390 ng·h/mL in data set [2] (100 ug/kg, single 100 μg/kg IV). Further, the AUC(0-inf) in data set [2] (100 ug/kg, single 100 μg/kg SC) is 472 ng·h/mL; in data set [2] (300 ug/kg, single 300 μg/kg SC) it was 1290 ng·h/mL. Moreover, the MRT in data set [1] (setting [6]) is 29.5 h; in data set [1] (setting [7]), 11.2 h; in data set [1] (setting [8]), 23.3 h; in data set [1] (setting [9]) it was 17.5 h; in data set [2] (30 ug/kg, single 30 μg/kg SC), 15.9 h; in data set [2] (100 ug/kg, single 100 μg/kg IV), 3.49 h. Further, the MRT was 13.7 h in data set [2] (100 ug/kg, single 100 μg/kg SC) and 13.6 h in data set [2] (300 ug/kg, single 300 μg/kg SC). The C0 was determined as 782 ng/mL in data set [1] (setting [7]) and 2860 ng/mL in data set [2] (100 ug/kg, single 100 μg/kg IV). For the same molecule, the Vd in data set [1] (in vivo, 20 ug/kg, single 20 μg/kg IV, read-out: VZ) stood at 0.34 L/kg; in data set [2] (100 ug/kg, single 100 μg/kg IV, read-out: VZ), 0.304 L/kg. The same molecule gave an AUC(0-t) in data set [1] (setting [8]) of 1160 ng·h/mL. In addition, the bioavailability in data set [1] (in vivo, across SC doses, read-out: bioavailability when delivered subcutaneously) is 45 to 54%; in data set [2] (30 ug/kg, single 30 μg/kg SC, read-out: Bioavailability), 12.9%; in data set [2] (100 ug/kg, single 100 μg/kg SC, read-out: Bioavailability) it was 10.7%; in data set [2] (300 ug/kg, single 300 μg/kg SC, read-out: Bioavailability), 9.67%; in data set [2] (male rats, based on AUC vs intravenous injection, across SC doses, read-out: subcutaneous bioavailability (% F)), 10 to 13%.

Turning to `CC[C@H](C)[C@H](NC(=O)[C@H](CCC(=O)O)NC(=O)[C@H](CO)NC(=O)[C@@H](NC(=O)[C@@H](N)CO)C(C)C)C(=O)N[C@@H](CCC(N)=O)C(=O)N[C@@H](CC(C)C)C(=O)N[C@@H](CCSC)C(=O)N[C@@H](Cc1c[nH]cn1)C(=O)N[C@@H](CC(N)=O)C(=O)N[C@@H](CC(C)C)C(=O)NCC(=O)N[C@@H](CCCCN)C(=O)N[C@@H](Cc1c[nH]cn1)C(=O)N[C@@H](CC(C)C)C(=O)N[C@@H](CC(N)=O)C(=O)N[C@@H](CO)C(=O)N[C@@H](CCSC)C(=O)N[C@@H](CCC(=O)O)C(=O)N[C@@H](CCCNC(=N)N)C(=O)N[C@H](C(=O)N[C@@H](CCC(=O)O)C(=O)N[C@@H](Cc1c[nH]c2ccccc12)C(=O)N[C@@H](CC(C)C)C(=O)N[C@@H](CCCNC(=N)N)C(=O)N[C@@H](CCCCN)C(=O)N[C@@H](CCCCN)C(=O)N[C@@H](CC(C)C)C(=O)N[C@@H](CCC(N)=O)C(=O)N[C@@H](CC(=O)O)C(=O)N[C@H](C(=O)N[C@@H](Cc1c[nH]cn1)C(=O)N[C@@H](CC(N)=O)C(=O)N[C@@H](Cc1ccccc1)C(=O)O)C(C)C)C(C)C` [PTH(1-34), reference compound], in data set [3] (setting [10]), the “% Decrease in Serum Phosphate, Daily Average” value (from here on “% Decrease … Daily Average”) is −1.7% and the “% Increase in Serum Calcium, Daily Average” value is reported as 8.0%. In data set [3] (setting [11]), the “% Decrease … Daily Average” value turned out to be 9.1% and the “% Increase in Serum Calcium, Daily Average” value turned out to be 12%. In addition, in data set [3] (setting [12]), the “% Decrease … Daily Average” value was 13% and the “% Increase in Serum Calcium, Daily Average” value was determined as 6.4%. Further, the “% Increase in Serum Calcium, Cumulative” value in data set [3] (10 nmol/kg SC daily) is 9% and 8.7%. Besides, in data set [3], the “increase in serum calcium compared to TPTx controls (in words)” value is “minimal and did not reach statistical significance”; the “decrease in serum phosphate (in words)” value is on record as “Occasional decreases”.

B1: PTH(1-84): wild-type full-length parathyroid hormone, 84 amino acids, SEQ ID NO: 2 (protein, UniProt P01270 32-115, looked up)
Parathyroid hormone: SVSEIQLMHNLGKHLNSMERVEWLRKKLQDVHNFVALGAPLAPRDAGSQRPRKKEDNVLVESHEKSLGEADKADVNVLTKAKSQ
modifications: Parathyroid hormone
B1: in data set [3] (setting [10]), the “% Decrease … Daily Average” value came to 0.2% and the “% Increase in Serum Calcium, Daily Average” value turned out to be 7.0%. In addition, in data set [3] (setting [11]), the “% Decrease … Daily Average” value turned out to be 17% and the “% Increase in Serum Calcium, Daily Average” value amounted to 14%. In addition, in data set [3] (setting [12]), the “% Decrease … Daily Average” value turned out to be 17% and the “% Increase in Serum Calcium, Daily Average” value turned out to be 4.1%. For the same molecule, in data set [3] (10 nmol/kg SC daily), the “% Increase in Serum Calcium, Cumulative” value is 9% and 8.5%. Moreover, the “% Decrease in Serum Phosphate, Combined” value in data set [3] (10 nmol/kg SC daily, Days 12, 27, relative to TPTx/vehicle) was found to be 17%. In data set [3], the “increase in serum calcium compared to TPTx controls (in words)” value was “minimal and did not reach statistical significance with the exception of two isolated timepoints”; the “decrease in serum phosphate (in words)” value is reported as “Slight decreases”.

Source of the values: patent US12233115B2, “Long-acting parathyroid hormone” (Extend Biosciences, Inc., priority 2022, dated 2025).
